According to patent publication US7935343B2:

How the values were obtained:
[1] = target: human IL-13 (human)
[2] = target: T1, murine IL-13 (murine)
T1 sequence: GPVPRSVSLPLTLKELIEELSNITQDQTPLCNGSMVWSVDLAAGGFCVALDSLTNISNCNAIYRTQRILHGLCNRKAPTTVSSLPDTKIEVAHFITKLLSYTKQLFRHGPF

[3] = target: T1, murine IL-13 (murine); remark: listed apart in the source

Chain of human IL-13 (human) (chain, as listed by the source): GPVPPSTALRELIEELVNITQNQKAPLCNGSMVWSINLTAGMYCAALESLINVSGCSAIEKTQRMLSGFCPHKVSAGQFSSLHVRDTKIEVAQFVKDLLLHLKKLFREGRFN

B1: BAK278D6 scFv (scFv, V domains shown)
VH: EVQLVQSGAEVKKPGASVKVSCKASGYTFRNYGLSWVRQAPGQGLEWMGWISANNGDTNYGQEFQGRITMTTETSTNTAHMELRSLRSDDTAVYYCVRDSSSNWARWFFDLWGKGTMVTVSS
VL: SYVLTQPPSVSVAPGQTARIPCGGNNIGSKLVHWYQQKPGQAPVLVVYDDGDRPSGIPERFSGSNSGNTATLTISRIDAGDEADYYCQVWDTGSDPVVFGGGTKLTVL
- IC50, TF-1 proliferation (Mean TF1) [1]: 44 nM

B2: BAK209B11 scFv (scFv, V domains shown)
VH: VQLQESGGGGLVQPGGSLRLSCAASGFTFSSYGMSWVRQAPGKGLEWVSSISASGDSTFYADSVKGRFTISRDNNKNMVFLQVNSLRADDTAVYFCAKDWSQWLVGDAFDVWGRGTTVTVSS
VL: DIQLTQSPSTLSASVGDRVTITCRASQSVSLWVAWYQQRPGKAPKLLIYDGSTLQSGVPARFSGSGSGTEFTLTISSLQPDDFATYYCQQYKTFSTFGQGTKVEIKR
- IC50, TF-1 cell proliferation [2]: 185 nM

B3: BAK209B11 human IgG4 (antibody, V domains shown)
VH: B2 VH
VL: B2 VL
- IC50, B9 cell proliferation [3]: 0.776 nM
